Earlier results as cited in paper PMC3877210.

Tests used:
[1] = molecular target: integrin β3 cytoplasmic tail (Homo sapiens) (UniProt P05106); test: NMR
[2] = molecular target: integrin β2 cytoplasmic tail (Homo sapiens) (UniProt P05107); test: SPR
[3] = molecular target: integrin β3 cytoplasmic tail (Homo sapiens) (UniProt P05106); test: SPR
[4] = molecular target: integrin β1 cytoplasmic tail (Homo sapiens) (UniProt P05556); test: pulldown
Sequence of UniProt P05556 (P05556 752-798): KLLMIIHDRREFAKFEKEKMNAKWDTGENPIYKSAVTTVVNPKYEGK

Sequence of UniProt P05106 (P05106 742-788): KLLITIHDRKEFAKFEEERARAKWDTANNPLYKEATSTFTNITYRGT
Sequence of UniProt P05107 (P05107 724-769): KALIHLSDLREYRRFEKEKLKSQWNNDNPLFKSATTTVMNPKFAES

Substance | Kd [1] [nM] | Kd [2] [nM] | Kd [3] [nM] | Kd [4] [nM]
talin F3 F3 (from UniProt Q9Y490) | 273000 |  |  | 
talin F2-F3 F2-F3 (from UniProt Q9Y490) |  | 12.5 | 91 | 67
